Reference: paper PMC9949068 (bioRxiv, 2023)
Where a chain is given by its changes, count along the chain named. Numbers in names are those of the source.

B1: human GLS2 (K253A), residues 38-602 (enzyme)
chain: HHLSEAAAQGRETPHSHQPQHQDHDSSESGMLSRLGDLLFYTIAEGQERIPIHKFTTALKATGLQTSDPRLRDCMSEMHRVVQESSSGGLLDRDLFRKCVSSNIVLLTQAFRKKFVIPDFEEFTGHVDRIFEDVKELTGGKVAAYIPQLAKSNPDLWGVSLCTVDGQRHSVGHTKIPFCLQSCVKPLTYAISISTLGTDYVHKFVGKEPSGLRYNALSLNEEGIPHNPMVNAGAIVVSSLIKMDCNKAEKFDFVLQYLNKMAGNEYMGFSNATFQSEKETGDRNYAIGYYLKEKKCFPKGVDMMAALDLYFQLCSVEVTCESGSVMAATLANGGICPITGESVLSAEAVRNTLSLMHSCGMYDFSGQFAFHVGLPAKSAVSGAILLVVPNVMGMMCLSPPLDKLGNSHRGTSFCQKLVSLFNFHNYDNLRHCARKLDPRREGAEIRNKTVVNLLFAAYSGDVSALRRFALSAMDMEQKDYDSRTALHVAAAEGHIEVVKFLIEACKVNPFAKDRWGNIPLDDAVQFNHLEVVKLLQDYQDSYTLSETQAEAAAEALSKENLESMV
B2: human GLS2 (N308A), residues 38-602 (enzyme)
chain: B1 chain with A216K, N271A

Key:
cryo-EM structure = target: the molecule itself; assay: cryo-EM structure
negative stain EM = target: the molecule itself; assay: negative stain EM

Row | Protein | binding result (cryo-EM structure) | binding result (negative stain EM)
1 | B1 | binds | 
2 | B2 |  | binds
